Patent US12606635B2, “Glypican-2-binding moieties, chimeric antigen receptors and uses thereof” (Nanjing Legend Biotech Co., Ltd., priority 2020, dated 2026)

T1: recombinant human GPC2-His protein (Homo sapiens, UniProt Q8N158)
T1 construct: His
T1 sequence (Q8N158 24-554): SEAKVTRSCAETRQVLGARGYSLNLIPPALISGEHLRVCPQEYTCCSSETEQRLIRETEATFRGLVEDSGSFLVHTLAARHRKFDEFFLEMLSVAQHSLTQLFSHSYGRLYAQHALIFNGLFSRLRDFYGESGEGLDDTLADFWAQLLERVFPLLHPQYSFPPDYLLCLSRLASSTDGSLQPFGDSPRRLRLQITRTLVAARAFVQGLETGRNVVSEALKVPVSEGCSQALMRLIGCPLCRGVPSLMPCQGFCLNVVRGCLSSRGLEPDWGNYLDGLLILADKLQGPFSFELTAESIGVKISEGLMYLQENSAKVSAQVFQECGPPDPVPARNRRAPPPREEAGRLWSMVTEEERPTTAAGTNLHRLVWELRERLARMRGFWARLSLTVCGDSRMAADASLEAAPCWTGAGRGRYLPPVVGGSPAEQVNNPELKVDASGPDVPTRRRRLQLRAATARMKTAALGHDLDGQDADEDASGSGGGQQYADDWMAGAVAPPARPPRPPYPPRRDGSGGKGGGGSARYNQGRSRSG


What follows are molecules tested against T1, recombinant human GPC2-His protein (assay: SPR (Biacore T200) affinity of anti-GPC2 VHH-hIgG1Fc). Details: 1:1 binding model.
Description: Each of the exemplary anti-GPC2 VHH sequences was cloned into a vector comprising a human IgG1Fc fragment (hlgG1Fc) sequence to facilitate recombinant expression of anti-GPC2 VHH-hlgG1Fc. Recombinant proteins were obtained and purified for SPR assays. The affinity of each anti-GPC2 VHH-hIgG1Fc for GPC2 was determined by SPR using a BIACORE® T200 analytical system (GE Healthcare). Briefly, recombinant human GPC2-His protein was covalently coupled to a CM5(s) sensor chip using an amine coupling kit. Exemplary VHH-hIgG1Fc proteins were serially diluted in running buffer (10 mM HEPES, 150 mM NaCl, 3 mM EDTA, 0.05% Tween-20, pH 7.4) and injected over the chip cell at a flowrate of 100 μL/min for 100 seconds followed by buffer-only injection for 300 seconds to allow for antibody dissociation. The dissociation […] (KD) were determined using the BIACORE® T200 evaluation software version 3.0 (Langmuir binding, local fit, 1:1 binding model).

| ka | kd | Molecule |
| --- | --- | --- |
| 520000 M⁻¹ s⁻¹ | 7.7e-05 s⁻¹ | AS72669VH6-hIgG1Fc: AS72669VH6 VHH fused to human IgG1Fc fragment (protein, left off: a dimerising Fc or GST, AS72669VH6 VHH fused to human IgG1Fc fragment) QVQLVESGGGVVQPGGSLRLSCAASRFTYSSYCMGWIRQAPGKGREGVAIFYTGGGRTYYADSVKGRFTISQDNSKNTLYLQMNSLRAEDTAVYYCVAGFYCSGGYWEGDFGYWGQGTLVTVSS |
| 320000 M⁻¹ s⁻¹ | 6.1e-05 s⁻¹ | AS71529VH6-AS70950VH6-hIgG1Fc: tandem AS71529VH6-AS70950VH6 VHH fused to human IgG1Fc fragment (protein, left off: a dimerising Fc or GST, tandem AS71529VH6-AS70950VH6 VHH fused to human IgG1Fc fragment) EVQLVESGGGLVQPGGSLRLSCAVSEYRYSSRYCMGWFRQAPGKGREGVAAIDSNGSADYVDSVKGRFTISKDNSKNTLYLQMNSLRAEDTAMYYCAADHLAYDCYSGATSVFRYWGQGTLVTVSSGGGGSGGGGSGGGGSEVQLVESGGGLVQPGGSLRLSCAISEFTYKNTCVGWFRQAPGKGREGVAAIDSDGNTNYVDSVKGRFTISQDNSKNTVYLQMNSLRAEDTAMYYCAAGAYCGRLLLWIGNYAYWGQGTLVTVSS |

These molecules were tested on human neuroblastoma cell line SH-SY5Y (assay: In vitro cytotoxicity assay (LDH), SH-SY5Y). Details: second group, FIG. 6C.
Assay type: cell-based
Description: The pre-activated T cells were transduced with lentivirus stock in the presence of […] polybrene and 300 IU/mL IL-2. T cells and lentivirus were centrifuged at 1000 g, 32° C. for 1 h and placed in humidified cell culture incubator for transgene expression under suitable conditions. On day 5 or day 7 or day 10 post-transduction, transduced T cells were harvested and co-incubated with tumor cells at an effector (CAR T) to target cell ratio of 10:1 or 5:1 or 2:1 or 1:1 or 0.2:1 for 20 hours. Target cells were human neuroblastoma cell line SH-SY5Y (ATCC, #CRL-2266), human neuroblastoma cell line IMR-32 cells (ATCC, #CCL-127), or human epidermoid carcinoma cell line A-431 (ATCC, #CRL-1555). To assay the cytotoxicity of CAR T cells on tumor cells, the Cytotoxicity Detection Kit (LDH) (Roche, #11644793001) assay reagents were prepared according to manufacturer's protocol. Reaction mix was added to the cell-free supernatant of each sample to detect the LDH released from cells. Optical densities at OD492 nm and OD650 nm were measured by PHERStar Microplate Reader. Baseline LDH released from the target cell in the absence of effector cells and effector cell in the absence of target cells were subtracted from the total LDH amount. The target maximum release was obtained by adding Triton-X100 at a final concentration of 1% to target cells in the absence of effector cells at the time when the cytotoxicity assays initiated. Supernatant from target cells in the absence of effector cells was used for target minimum release. The specific cytotoxicity was calculated by the formula: % Target cell lysis=100*[(OD CAR T cell+Target cell)−(OD CAR T cell)−(OD Target cell)+(OD Buffer background)]/(OD Target Maximum release−OD Target Minimum release).
On day 5 or day 8 or day 10 post-transduction, transduced T cells were harvested and co-incubated with tumor cells at an effector (CAR T) to target cell ratio of 10:1 or 1:1 or 0.2:1 for 20 hours. To assay the cytotoxicity of CAR T cells on tumor cells, the Cytotoxicity Detection Kit (LDH) (Roche, #11644793001) was added to the culture supernatant and the specific cytotoxicity for each CAR T cell construct was measured as described in Example 6.

| Molecule | cytotoxicity against SH-SY5Y compared with CAS70950-BBz, CAS72052-BBz and CAS72669-BBz |
| --- | --- |
| CAS79236-BBz: camel VHH anti-GPC2 CAR (4-1BB, CD3ζ), SEQ ID NO: 216; tested as CAR T cells (protein, expressed in CAR T cells; CAS79236-BBz) MALPVTALLLPLALLLHAARPQVKLVESGGGSVQAGGSLRLSCAVSGYTYSSYCMAWFRQAPGEEREGVASIDAGGRTTYVDSVKGRFTISKDNAKTSLYLQMNSLKPEDTAMYYCAVDVRTRCGGTWDGEAVYFPYWGQGTQVTVSSTTTPAPRPPTPAPTIASQPLSLRPEACRPAAGGAVHTRGLDFACDIYIWAPLAGTCGVLLLSLVITLYCKRGRKKLLYIFKQPFMRPVQTTQEEDGCSCRFPEEEEGGCELRVKFSRSADAPAYKQGQNQLYNELNLGRREEYDVLDKRRGRDPEMGGKPRRKNPQEGLYNELQKDKMAEAYSEIGMKGERRRGKGHDGLYQGLSTATKDTYDALHMQALPPR | better cytotoxicity |
| CAS77986-BBz: camel VHH anti-GPC2 CAR (4-1BB, CD3ζ), SEQ ID NO: 211; tested as CAR T cells (protein, expressed in CAR T cells; CAS77986-BBz) MALPVTALLLPLALLLHAARPQVQLVESGGGSVQAGGSLRLSCAASASGYTYSSDSMAWFRQAPGKEREGVAGISTGGRSTYYADSVKGRFTISQDNAKTTVYLHMNSLKPEDTAMYYCAADGPSMTAIQALGDLYPVDFAWWGQGTQVTVSSTTTPAPRPPTPAPTIASQPLSLRPEACRPAAGGAVHTRGLDFACDIYIWAPLAGTCGVLLLSLVITLYCKRGRKKLLYIFKQPFMRPVQTTQEEDGCSCRFPEEEEGGCELRVKFSRSADAPAYKQGQNQLYNELNLGRREEYDVLDKRRGRDPEMGGKPRRKNPQEGLYNELQKDKMAEAYSEIGMKGERRRGKGHDGLYQGLSTATKDTYDALHMQALPPR | better cytotoxicity |
| CAS79101-BBz: camel VHH anti-GPC2 CAR (4-1BB, CD3ζ), SEQ ID NO: 215; tested as CAR T cells (protein, expressed in CAR T cells; CAS79101-BBz) MALPVTALLLPLALLLHAARPQVQLVESGGGSVQAGGSLRLSCAASGDTYSNYCMGWFRQAPGKEREEVAAIDSDGSRRYPDSVKGRFTISKDNAKKILYLQMNSLKPEDTAMYFCATDPKVACARVVEYGGGWYRWGQGTQVTVSSTTTPAPRPPTPAPTIASQPLSLRPEACRPAAGGAVHTRGLDFACDIYIWAPLAGTCGVLLLSLVITLYCKRGRKKLLYIFKQPFMRPVQTTQEEDGCSCRFPEEEEGGCELRVKFSRSADAPAYKQGQNQLYNELNLGRREEYDVLDKRRGRDPEMGGKPRRKNPQEGLYNELQKDKMAEAYSEIGMKGERRRGKGHDGLYQGLSTATKDTYDALHMQALPPR | better cytotoxicity |
| CAS78117-BBz: camel VHH anti-GPC2 CAR (4-1BB, CD3ζ), SEQ ID NO: 212; tested as CAR T cells (protein, expressed in CAR T cells; CAS78117-BBz) MALPVTALLLPLALLLHAARPQVKLVESGGGSVQAGGALRLSCIVRRYTYATYSMAWFRQSPGKEREGVAGLDSVGATGYAESVKGRFTISKDNAKNILYLQMNSLKPEDTAMYYCVVDPASAKVTYGSWSTPSYAYWGQGTQVTVSSTTTPAPRPPTPAPTIASQPLSLRPEACRPAAGGAVHTRGLDFACDIYIWAPLAGTCGVLLLSLVITLYCKRGRKKLLYIFKQPFMRPVQTTQEEDGCSCRFPEEEEGGCELRVKFSRSADAPAYKQGQNQLYNELNLGRREEYDVLDKRRGRDPEMGGKPRRKNPQEGLYNELQKDKMAEAYSEIGMKGERRRGKGHDGLYQGLSTATKDTYDALHMQALPPR | better cytotoxicity |
| CAS77932-BBz: camel VHH anti-GPC2 CAR (4-1BB, CD3ζ), SEQ ID NO: 208; tested as CAR T cells (protein, expressed in CAR T cells; CAS77932-BBz) MALPVTALLLPLALLLHAARPQVQLKESGGGSVQAGGSLRLSCAVSGYWYSVAWMGWFRQTPGKEREGVAAVLNGGGRRYYADSVKGRFTISQDNSKNTLYLQMNSLKPEDTAMYYCAAGNGVGHPLGPSEYNYWGQGTQVTVSSTTTPAPRPPTPAPTIASQPLSLRPEACRPAAGGAVHTRGLDFACDIYIWAPLAGTCGVLLLSLVITLYCKRGRKKLLYIFKQPFMRPVQTTQEEDGCSCRFPEEEEGGCELRVKFSRSADAPAYKQGQNQLYNELNLGRREEYDVLDKRRGRDPEMGGKPRRKNPQEGLYNELQKDKMAEAYSEIGMKGERRRGKGHDGLYQGLSTATKDTYDALHMQALPPR | better cytotoxicity |
| CAS77916-BBz: camel VHH anti-GPC2 CAR (4-1BB, CD3ζ), SEQ ID NO: 207; tested as CAR T cells (protein, expressed in CAR T cells; CAS77916-BBz) MALPVTALLLPLALLLHAARPQVHLMESGGGSVQAGGSLRLSCATSGYTSSWNCMGWFRQPPGKEREGVATIANRGHSTYYADSVKGRFTISQGNAKNTVYLQMNSLKPEDTAMYYCATDTWACVGISTDFEYWGQGTQVTVSSTTTPAPRPPTPAPTIASQPLSLRPEACRPAAGGAVHTRGLDFACDIYIWAPLAGTCGVLLLSLVITLYCKRGRKKLLYIFKQPFMRPVQTTQEEDGCSCRFPEEEEGGCELRVKFSRSADAPAYKQGQNQLYNELNLGRREEYDVLDKRRGRDPEMGGKPRRKNPQEGLYNELQKDKMAEAYSEIGMKGERRRGKGHDGLYQGLSTATKDTYDALHMQALPPR | better cytotoxicity |
